Experimental data reported in publication PMC8605242, “Multiple variants of the human presequence translocase motor subunit Magmas govern the mitochondrial import” (The Journal of Biological Chemistry, 2021).

B2: DnaJC15J+T (domain or fragment)
chain: not shown
notes: DnaJC15, human J-protein, N-terminal truncation with the J-domain and predicted MTS (J + T), amino acids 69-146; also called hexahistidine tagged DnaJC15J+T
B3: DnaJC19J+T (domain or fragment)
chain: not shown
notes: DnaJC19, human J-protein, N-terminal truncation with the J-domain and predicted MTS (J + T), amino acids 34-112; also called hexahistidine tagged DnaJC19J+T

Columns and labels:
[1] = target: B2; assay: cell-based or functional assay
[2] = target: B3; assay: cell-based or functional assay
[3] = target: T1, GST-Magmas (human, UniProt Q9Y3D7 1-125); assay: pull-down; 1 μM GST alone or GST-Magmas variants held on beads, increasing concentrations of DnaJC19J+T or DnaJC15J+T, 45 min, 24 °C; 50 mM Tris-HCl pH 7.5, 100 mM KCl, 0.2% Triton-X 100, 10% glycerol, 1 mM PMSF; blocked with 0.1% BSA; SDS-PAGE, Coomassie, densitometry; conditions: both partners purified
T1 construct: Magmas, human, full length; vector pGEX-KG; also called GST tagged Magmas; source: E. coli (C41), purified
T1 sequence (looked up): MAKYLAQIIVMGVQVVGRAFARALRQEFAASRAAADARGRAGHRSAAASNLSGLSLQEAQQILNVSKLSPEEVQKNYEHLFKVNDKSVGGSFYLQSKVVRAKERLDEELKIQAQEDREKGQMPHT

[4] = target: T2, GST-Magmas-1 (human, UniProt I3L3T0 1-145); assay: as above; conditions: both partners purified
T2 construct: Magmas-1, human variant of Magmas with a unique N-terminal extension, full length; UniProt entry I3L3T0; vector pGEX-KG; also called GST tagged Magmas-1; source: E. coli (C41), purified
T2 sequence (looked up): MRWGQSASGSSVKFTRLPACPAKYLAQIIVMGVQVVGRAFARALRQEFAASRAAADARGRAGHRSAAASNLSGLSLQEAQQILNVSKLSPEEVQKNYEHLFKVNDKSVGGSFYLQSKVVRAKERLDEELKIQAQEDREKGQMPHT

Sequence of DnaJC19J+T (Q96DA6 34-112): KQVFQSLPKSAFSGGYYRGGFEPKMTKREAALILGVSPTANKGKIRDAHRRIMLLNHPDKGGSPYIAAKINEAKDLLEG
Sequence of DnaJC15J+T (Q9Y5T4 69-146): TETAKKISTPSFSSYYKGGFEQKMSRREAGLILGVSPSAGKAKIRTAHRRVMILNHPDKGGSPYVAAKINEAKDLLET

B1: hexahistidine tagged Magmas-2 (natural protein, human, UniProt I3L1U7 1-129, looked up)
chain: MAKYLAQIIVMGVQVVGRAFARALRQEFAASRAAADARGRAGHRSAAASNLSGLSLQEAQQILNVSKLSPEEVQKNYEHLFKVNDKSVGGSFYLQSKRSGLSMLPKLISNSWPQAILLPWPPKTLGLHA
Q: How did the “inhibition of the DnaJC15J+T-stimulated ATP hydrolysis of mortalin, single turnover assay, Mortalin-ATP : J-protein : Magmas variant 1:2:4” value [1] turn out when B1 was run?
A: Its value is over 90%.

Q: What about the “inhibition of the DnaJC19J+T-stimulated ATP hydrolysis of mortalin, single turnover assay, Mortalin-ATP : J-protein : Magmas variant 1:2:4” value [2] of the same binder?
A: The value was over 90%.

Q: Does B2 bind [3]?
A: Result: binds

Q: Which results are given for B3?
A: binding result [4]: binds; binding result [3]: binds
